Test results: publication PMC9700832 (2022)

B1: B. thuringiensis serovar israelensis LexA (natural protein)
chain: MEKLTKRQQDILDFIKLKVQEKGYPPSVREIGQAVGLASSSTVHGHLSRLEEKGYIRRDPTKPRAIEILGEDRMDTETQSVIQVPIVGKVTAGLPITAVESVEEHFPLPASIVAGADQVFMLRISGDSMIEAGIFDGDLVVVRQQQSAYNGEIVVALTEDNEATVKRFYKEKDHFRLQPENSSLEPIILKQVSVIGKVIGVYRDLH

Key:
Assay in all cases: SPR
[1] = target: B1
[2] = target: tectiviral gp7 homolog from B. anthracis phage AP50 (phage AP50 (B. anthracis))
[3] = target: tectiviral gp7 homolog from the phage found in B. thuringiensis serovar aizawai (tectiviral phage found in B. …)
[4] = target: tectiviral gp7 homolog from B. cereus AND1284 phage Sato (phage Sato (B. cereus AND1284))
[5] = target: tectiviral gp7 homolog from the phage found in B. cereus VD184 (tectiviral phage found in B. cereus …)

Binder | Kd [1] | Kd [2] | Kd [3] | Kd [4] | Kd [5]
MRDKLLDFIIELSQSSKQVVSKSYVIDRLMQVTKEDYKELEKNVEGKKDD (natural protein) [gp7 protein of GIL01 phage] | 169 nM | – | – | – | –
B1 | – | 167 nM | 150 nM | 190 nM | 148 nM
MRDKLLDFIIELSQSSKQVVAKDYVIDRLMQVTKEDYKEMEKKTEGKKN (natural protein) [tectiviral gp7 homolog from B. mycoides VDm034 phage Lima] | 185 nM | – | – | – | –
